From paper PMC4802085, “Haem-dependent dimerization of PGRMC1/Sigma-2 receptor facilitates cancer proliferation and chemoresistance” (Nature Communications, 2016)

Biological target: T1, purified EGFR (epidermal growth factor receptor) (human, UniProt P00533 25-1210)
T1 construct: epidermal growth factor receptor (EGFR), human, full length protein isolated from A431 cells; also called EGFR protein; source: bought: ENZO (BML-SE116), full length protein isolated from human A431 cells
Assay: co-IP; in vitro binding assay: 1 μg purified EGFR with 10 μg FLAG-PGRMC1 (a.a.44–195) treated with 50 μmol l^−1 haemin, anti-FLAG (M2) agarose; 20 mmol l^−1 HEPES-NaOH (pH 7.9), 100 mmol l^−1 NaCl, 0.2 mmol l^−1 EDTA, 10% glycerol, 0.1% NP40, room temperature
Settings: both partners purified

B1: FLAG-PGRMC1 wild-type (a.a.44–195) (domain or fragment)
chain: not shown
notes: progesterone-receptor membrane component 1 (PGRMC1), human, cytosolic domain a.a.44–195; The cloning of the FLAG-tagged 44–195 construct is not described; probably made like the other a.a.44–195 proteins (pGEX6P-1, E. coli BL21 (DE3), GST cleaved); Used as apo form or treated with 50 μmol l^−1 haemin; also called FLAG-PGRMC1 wt (a.a.44–195); cytosolic domain of wild-type PGRMC1
B1: binds.
